Broadly, the Kd is the constant that tells how readily two partners part at equilibrium.

The labels stand for the following.
B1: ARMS ankyrin repeats 1–11 (R1-11, residues 1–365) [rat] / Syt4 132–425 [human] (parent complex)
chain 1: MSVLISQSVINYVEEENIPALKALLEKCKDVDERNECGQTPLMLAAEQGNVEIVKELLKNGANCNLEDLDNWTALISASKEGHIHIVEELLKSGASLEHRDMGGWTALMWACYKGRTDVVELLLSHGANPSVTGLYSVYPIIWAAGRGHADIVHLLLQNGAKVNCSDKYGTTPLVWAARKGHLECVKHLLAMGADVDQEGANSMTALIVAVKGGYTQSVKEILKRNPNVNLTDKDGNTALMIASKEGHIEIVQDLLDAGTYVNIPDRSGDTVLIGAVRGGHVEIVRALLQKYADIDIRGQDNKTALYWAVEKGNATMVRDILQCNPDTEICTKDGETPLIKATKMRNIEVVELLLDKGAKVSAVD
chain 2: ESVSPESLKSSTSLTSEEKQEKLGTLFFSLEYNFERKAFVVNIKEARGLPAMDEQSMTSDPYIKMTILPEKKHKVKTRVLRKTLDPAFDETFTFYGIPYTQIQELALHFTILSFDRFSRDDIIGEVLIPLSGIELSEGKMLMNREIIKRNVRKSSGRGELLISLCYQSTTNTLTVVVLKARHLPKSDVSGLSDPYVKVNLYHAKKRISKKKTHVKKCTPNAVFNELFVFDIPCEGLEDISVEFLVLDSERGSRNEVIGQLVLGAAAEGTGGEHWKEICDYPRRQIAKWHVLCDG

In this test the parent is B1. The test can be described thus: ITC; parent: 1.2e+04 nM.
Consider chain 2 ESVSPESLKSSTSLTSEEKQEKLGTLFFSLEYNFERKAFVVNIKEARGLPAMDEQSMTSDPYIKMTILPEKKHKVKTRVLRKTLDPAFDETFTFYGIPYTQIQELALHFTILSFDRFSRDDIIGEVLIPLSGIELSEGKMLMNREIIKRNVRKSSGAGELLISLCYQSTTNTLTVVVLKARHLPKSDVSGLSDPYVKVNLYHAKKRISKKKTHVKKCTPNAVFNELFVFDIPCEGLEDISVEFLVLDSERGSRNEVIGQLVLGAAAEGTGGEHWKEICDYPRRQIAKWHVLCDG [chain 2 R157A], for which the Kd is 10 µM.
Next, chain 2 ESVSPESLKSSTSLTSEEKQEKLGTLFFSLEYNFERKAFVVNIKEARGLPAMDEQSMTSDPYIKMTILPEKKHKVKTRVLRKTLDPAFDETFTFYGIPYTQIQELALHFTILSFDRFSRDDIIGEVLIPLSGIELSEGKMLMNREIIAANVAKSSGRGELLISLCYQSTTNTLTVVVLKARHLPKSDVSGLSDPYVKVNLYHAKKRISKKKTHVKKCTPNAVFNELFVFDIPCEGLEDISVEFLVLDSERGSRNEVIGQLVLGAAAEGTGGEHWKEICDYPRRQIAKWHVLCDG [chain 2 K148A, chain 2 R149A, chain 2 R152A]: 19 µM.
The same measure for chain 2 ESVSPESLKSSTSLTSEEKQEKLGTLFFSLEYNFERKAFVVNIKEARGLPAMDEASMTSDPYIKMTILPEKKHKVKTRVLRKTLDPAFDETFTFYGIPYTQIQELALHFTILSFDRFSRDDIIGEVLIPLSGIELSEGKMLMNREIIKRNVRKSSGRGELLISLCYQSTTNTLTVVVLKARHLPKSDVSGLSDPYVKVNLYHAKKRISKKKTHVKKCTPNAVFNELFVFDIPCEGLEDISVEFLVLDSERGSRNEVIGQLVLGAAAEGTGGEHWKEICDYPRRQIAKWHVLCDG [chain 2 Q55A]: 3 µM; for chain 2 ESVSPESLKSSTSLTSEEKQEKLGTLFFSLEYNFERKAFVVNIKEARGLPAMDEQSMTSDPYIKMTILPEKKHKVKTRVLRKTLDPAFDETFTFYGIPYTQIQELALHFTILSFDRFSRDDIIGEVLIPLSGIELSEGKMLMNREIIKRNVRASSGRGELLISLCYQSTTNTLTVVVLKARHLPKSDVSGLSDPYVKVNLYHAKKRISKKKTHVKKCTPNAVFNELFVFDIPCEGLEDISVEFLVLDSERGSRNEVIGQLVLGAAAEGTGGEHWKEICDYPRRQIAKWHVLCDG [chain 2 K153A]: 3 µM; for chain 2 ESVSPESLKSSTSLTSEEKQEKLGTLFFSLEYNFERKAFVVNIKEARGLPAMDEQSMTSDPYIKMTILPEKKHKVKTRVLRKTLDPAFDETFTFYGIPYTQIQELALHFTILSFDRFSRDDIIGEVLIPLSGIELSEGKMLMNREIIKRNVAASSGRGELLISLCYQSTTNTLTVVVLKARHLPKSDVSGLSDPYVKVNLYHAKKRISKKKTHVKKCTPNAVFNELFVFDIPCEGLEDISVEFLVLDSERGSRNEVIGQLVLGAAAEGTGGEHWKEICDYPRRQIAKWHVLCDG [chain 2 R152A, chain 2 K153A]: 4 µM.
Take chain 2 ESVSPESLKSSTSLTSEEKQEKLGTLFFSLEYNFERKAFVVNIKEARGLPAMDEQSMTSDPYIKMTILPEKKHKVKTRVLRKTLDPAFDETFTFYGIPYTQIQELALHFTILSFDRFSRDDIIGEVLIPLSGIELSEGKMLMNREIIAANVRKSSGRGELLISLCYQSTTNTLTVVVLKARHLPKSDVSGLSDPYVKVNLYHAKKRISKKKTHVKKCTPNAVFNELFVFDIPCEGLEDISVEFLVLDSERGSRNEVIGQLVLGAAAEGTGGEHWKEICDYPRRQIAKWHVLCDG [chain 2 K148A, chain 2 R149A]: the Kd came out at 9 µM.
Next, chain 2 ESVSPESLKSSTSLTSEEKQEKLGTLFFSLEYNFERKAFVVNIKEARGLPAMDEQSMTSDPYIKMTILPEKKHKVKTRVLRKTLDPAFDETFTFYGIPYTQIQELALHFTILSFDRFSRDDIIGEVLIPLSGIELSEGKMLMNREIIKRNVAKSSGRGELLISLCYQSTTNTLTVVVLKARHLPKSDVSGLSDPYVKVNLYHAKKRISKKKTHVKKCTPNAVFNELFVFDIPCEGLEDISVEFLVLDSERGSRNEVIGQLVLGAAAEGTGGEHWKEICDYPRRQIAKWHVLCDG [chain 2 R152A]: 4 µM.
